Source: paper PMC6279836, “The LPG1x family from Leishmania major is constituted of rare eukaryotic galactofuranosyltransferases with unprecedented catalytic properties” (Scientific Reports, 2018)

Key:
Experiment in all cases: purified protein
Conditions in all cases: donor substrate; acceptor methyl alpha-D-mannopyranoside
[1] = tested on: O=c1ccn([C@@H]2O[C@H](COP(=O)(O)OP(=O)(O)O[C@H]3O[C@@H]([C@H](O)CO)[C@H](O)[C@H]3O)[C@@H](O)[C@H]2O)c(=O)[nH]1
[2] = tested on: O=c1ccn([C@@H]2O[C@H](COP(=O)(O)OP(=O)(O)O[C@H]3O[C@H](CO)[C@H](O)[C@H](O)[C@H]3O)[C@@H](O)[C@H]2O)c(=O)[nH]1
[3] = tested on: Nc1nc2c(ncn2[C@@H]2O[C@H](COP(=O)(O)OP(=O)(O)O[C@H]3O[C@H](CO)[C@@H](O)[C@H](O)[C@@H]3O)[C@@H](O)[C@H]2O)c(=O)[nH]1
[4] = tested on: Nc1nc2c(ncn2[C@@H]2O[C@H](COP(=O)(O)OP(=O)(O)O[C@H]3O[C@H](CO)[C@@H](O)[C@H](O)[C@H]3O)[C@@H](O)[C@H]2O)c(=O)[nH]1
[5] = tested on: O=c1ccn([C@@H]2O[C@H](CO[P@@](=O)(O)O[P@@](=O)(O)O[C@H]3O[C@H](CO)[C@@H](O)[C@H](O)[C@H]3O)[C@@H](O)[C@H]2O)c(=O)[nH]1

| Substance | Km [1] | kcat [1] | kcat/Km [1] | Km [2] | kcat [2] | kcat/Km [2] | Km [3] | kcat [3] | kcat/Km [3] | Km [4] | kcat [4] | kcat/Km [4] | Km [5] | kcat [5] | kcat/Km [5] |
| --- | --- | --- | --- | --- | --- | --- | --- | --- | --- | --- | --- | --- | --- | --- | --- |
| LPG1 (Leishmania major) | 70 ± 70 µM | 512.5 ± 1.03 s⁻¹ | 6.83e+06 M⁻¹ s⁻¹ | 230 ± 20 µM | 5.33 ± 0.367 s⁻¹ | 23300 M⁻¹ s⁻¹ |  |  |  |  |  |  |  |  |  |
| LPG1G (Leishmania major) | 30 ± 40 µM | 205.9 ± 0.967 s⁻¹ | 6.56e+06 M⁻¹ s⁻¹ | 5 ± 1 µM | 2.2 ± 0.167 s⁻¹ | 466000 M⁻¹ s⁻¹ |  |  |  |  |  |  |  |  |  |
| LPG1L (Leishmania major) | 20 ± 20 µM | 88.3 ± 1.05 s⁻¹ | 4.85e+06 M⁻¹ s⁻¹ | 50 ± 10 µM | 7.8 ± 0.833 s⁻¹ | 165000 M⁻¹ s⁻¹ | 32 ± 5 µM | 1.43 ± 0.1 s⁻¹ | 47700 M⁻¹ s⁻¹ | 43 ± 5 µM | 0.4 ± 0.05 s⁻¹ | 8330 M⁻¹ s⁻¹ | 6 ± 1 µM | 3.42 ± 0.433 s⁻¹ | 578000 M⁻¹ s⁻¹ |
| LPG1R (Leishmania major) | 550 ± 680 µM | 10.6 ± 1.27 s⁻¹ | 19100 M⁻¹ s⁻¹ |  |  |  |  |  |  |  |  |  | 38 ± 5 µM | 5.05 ± 0.55 s⁻¹ | 133000 M⁻¹ s⁻¹ |
